Assay [1] has as its target dynamic microtubules grown from purified bovine brain tubulin (bovine) (UniProt Q6B856). Description: optical trap rupture force assay; kinetochores purified without benzonase, held on beads by anti-penta-His antibody via Dsn1-6His-3M3DK, attached to the tip of dynamic microtubules grown from coverslip-anchored seeds; BRB80 growth buffer, 23 °C; force raised at 0.25 pN/s until detachment.

Assay [2] has the same target. Briefly: optical trap rupture force assay; kinetochores purified with benzonase, held on beads by anti-penta-His antibody via Dsn1-6His-3M3DK, attached to the tip of dynamic microtubules grown from coverslip-anchored seeds; BRB80 growth buffer, 23 °C; force raised at 0.25 pN/s until detachment.

Take “K. marxianus kinetochores purified via Dsn1-6His-3M3DK (from UniProt A0ABX6F0Z3 1-547) (complex)”: the results for the median rupture force in assay [1] and in assay [2] were 7.5 pN and 6.4 pN, respectively.
On to “S. cerevisiae kinetochores purified via Dsn1-6His-3M3DK (from UniProt P40568 1-576) (complex)”, for which the median rupture force in assay [1] was 7.2 pN.
